Assays:
Assay in all cases: competitive phage ELISA
[1] = target: T1, IGF-I E9A (G1S-A70V background) displayed on phage (human; bacteriophage M13)
T1 construct: monovalent M13 phage display
T1 chain: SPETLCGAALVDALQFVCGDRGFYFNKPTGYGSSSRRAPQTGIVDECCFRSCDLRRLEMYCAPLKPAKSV
Experimental: (§1) Phage particles were harvested and resuspended in PBS buffer as described in Lowman, H. B., “Phage Display of Peptide Libraries on Protein Scaffolds,” in Cabilly, S. (ed.), Combinatorial Peptide Library Protocols (Humana Press Inc.: Totowa, N.J., 1998), pp. 249-264. Then phage concentrations were normalized to yield a maximal ELISA signal of 0.2-0.4 for each mutant (Lowman, in Cabilly, S. (ed.), supra). Threefold serial dilutions of soluble competitor were prepared on non-absorbent microtiter plates (Nunc, F, 96 wells) with binding buffer (0.5% TWEEN™ 20/PBS) containing phage at the previously-determined concentrations. […] After blocking, the plates containing immobilized target were washed with 0.05% TWEEN™/PBS buffer and subsequently incubated with 80 μl/well of the premixed phage-competitor solutions for 1 hour at room temperature. After washing, bound phage was detected with 80 μl/well of a solution containing a primary rabbit anti-phage polyclonal antibody and a secondary goat anti-rabbit monoclonal antibody-horseradish peroxidase conjugate in 0.5% TWEEN 20™/PBS. o-Phenylenediamine (Sigma) and tetramethylbenzidine (Kirkegaard and Perry) were used as chromogenic substrates, resulting in product detection at 492 and 450 nm, respectively. IC₅₀ values were determined by fitting the binding data to a generic saturation curve (Lowman, in Cabilly, S. (ed.), supra). […] Numbers in Table I represent mean +standard deviation of individually assessed IC₅₀ values.
(§2) At least two different clones of every mutant were tested.

[2] = target: T2, IGF-I L10A (G1S-A70V background) displayed on phage (human; bacteriophage M13)
T2 construct: monovalent M13 phage display
T2 chain: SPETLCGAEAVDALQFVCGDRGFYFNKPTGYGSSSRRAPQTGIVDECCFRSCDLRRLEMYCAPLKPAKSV
Experimental: as §1, §2

[3] = target: T3, IGF-I F16A (G1S-A70V background) displayed on phage (human; bacteriophage M13)
T3 construct: monovalent M13 phage display
T3 chain: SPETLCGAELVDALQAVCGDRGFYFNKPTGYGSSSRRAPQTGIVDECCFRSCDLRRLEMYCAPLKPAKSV
Experimental: as §1, §2

[4] = target: T4, IGF-I V17A (G1S-A70V background) displayed on phage (human; bacteriophage M13)
T4 construct: monovalent M13 phage display
T4 chain: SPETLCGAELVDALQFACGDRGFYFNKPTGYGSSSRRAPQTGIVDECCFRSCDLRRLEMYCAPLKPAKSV
Experimental: as §1, §2

[5] = target: T5, IGF-I G22A (G1S-A70V background) displayed on phage (human; bacteriophage M13, not fully specified; Displayed monovalently on M13 phage as a C-terminal fusion to the gene III fragment, which is left out of the letters.)
T5 construct: monovalent M13 phage display; not shown: Display carrier: M13 gene III fragment (residues 249-406) and its junction
T5 chain: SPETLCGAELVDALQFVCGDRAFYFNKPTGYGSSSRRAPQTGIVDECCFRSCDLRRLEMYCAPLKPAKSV
Experimental: as §1, §2

[6] = target: T6, IGF-I Y24A (G1S-A70V background) displayed on phage (human; bacteriophage M13, not fully specified; Displayed monovalently on M13 phage as a C-terminal fusion to the gene III fragment, which is left out of the letters.)
T6 construct: monovalent M13 phage display; not shown: Display carrier: M13 gene III fragment (residues 249-406) and its junction
T6 chain: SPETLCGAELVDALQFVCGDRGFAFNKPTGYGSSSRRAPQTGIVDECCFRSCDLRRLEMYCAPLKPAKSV
Experimental: as §1, §2

[7] = target: T7, IGF-I F25A (G1S-A70V background) displayed on phage (human; bacteriophage M13, not fully specified; Displayed monovalently on M13 phage as a C-terminal fusion to the gene III fragment, which is left out of the letters.)
T7 construct: monovalent M13 phage display; not shown: Display carrier: M13 gene III fragment (residues 249-406) and its junction
T7 chain: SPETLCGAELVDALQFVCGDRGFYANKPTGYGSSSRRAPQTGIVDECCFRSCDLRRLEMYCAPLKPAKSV
Experimental: as §1, §2

[8] = target: T8, IGF-I D53A (G1S-A70V background) displayed on phage (human; bacteriophage M13)
T8 construct: monovalent M13 phage display
T8 chain: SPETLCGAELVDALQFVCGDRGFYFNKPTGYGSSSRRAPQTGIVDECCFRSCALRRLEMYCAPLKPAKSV
Experimental: as §1, §2

[9] = target: T9, IGF-I L54A (G1S-A70V background) displayed on phage (human; bacteriophage M13)
T9 construct: monovalent M13 phage display
T9 chain: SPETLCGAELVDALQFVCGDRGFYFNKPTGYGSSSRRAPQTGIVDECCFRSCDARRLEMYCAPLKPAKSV
Experimental: as §1, §2

[10] = target: T10, IGF-I L57A (G1S-A70V background) displayed on phage (human; bacteriophage M13)
T10 construct: monovalent M13 phage display; not shown: M13 gene III protein fragment (residues 249-406), the phage display carrier, and its junction to IGF-I
T10 chain: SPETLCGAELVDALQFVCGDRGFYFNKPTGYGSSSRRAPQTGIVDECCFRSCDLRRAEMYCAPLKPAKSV
Experimental: as §1, §2

[11] = target: T11, IGF-I P2A (G1S-A70V background) displayed on phage (human; bacteriophage M13)
T11 construct: range 249-406; monovalent M13 phage display
Experimental: as §1, §2

[12] = target: T12, IGF-I E58A (G1S-A70V background) displayed on phage (human; bacteriophage M13)
T12 construct: monovalent M13 phage display; not shown: M13 gene III protein fragment (residues 249-406), the phage display carrier, and its junction to IGF-I
T12 chain: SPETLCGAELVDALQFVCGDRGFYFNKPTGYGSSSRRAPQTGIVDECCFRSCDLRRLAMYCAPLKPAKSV
Experimental: as §1, §2

[13] = target: T13, IGF-I K65A (G1S-A70V background) displayed on phage (human; bacteriophage M13)
T13 construct: monovalent M13 phage display; not shown: M13 gene III protein fragment (residues 249-406), the phage display carrier, and its junction to IGF-I
T13 chain: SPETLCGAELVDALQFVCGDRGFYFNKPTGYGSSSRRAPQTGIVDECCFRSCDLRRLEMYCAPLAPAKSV
Experimental: as §1, §2

[14] = target: T14, IGF-I S1G (G1S-A70V background) displayed on phage (human; bacteriophage M13, UniProt P69168 267-424)
T14 construct: range 249-406; monovalent M13 phage display
Experimental: as §1, §2

[15] = target: T15, wild-type IGF-I displayed on phage (human; bacteriophage M13, UniProt P69168 267-424)
T15 construct: range 249-406; monovalent M13 phage display; also called IGF-I WT; double-mutation restoring wild-type IGF-I
Experimental: as §1, §2

B1: human IGFBP-1 (other, UniProt P08833 26-259, looked up)
chain: APWQCAPCSAEKLALCPPVSASCSEVTRSAGCGCCPMCALPLGAACGVATARCARGLSCRALPGEQQPLHALTRGQGACVQESDASAPHAAEAGSPESPESTEITEEELLDNFHLMAPSEEDHSILWDAISTYDGSKALHVTNIKKWKEPCRIELYRVVESLAKAQETSGEEISKFYLPNCNKNGFYHSRQCETSMDGEAGLCWCVYPWNGKRIPGSPEIRGDPNCQIYFNVQN
notes: secreted recombinant protein purified from conditioned medium
[1]
  IC50: 8.6 nM
[2]
  IC50: 311 nM
[3]
  IC50: 57.8 nM
[4]
  IC50: 42.9 nM
[5]
  IC50: 15.9 nM
[6]
  IC50: 13.3 nM
[7]
  IC50: 181 nM
[8]
  IC50: 15.3 nM
[9]
  IC50: 23.1 nM
[10]
  IC50: 21.8 nM
[11]
  IC50: 11 nM
[12]
  IC50: 11.9 nM
[13]
  IC50: 12.4 nM
[14]
  IC50: 11.2 nM
[15]
  IC50: 8.4 nM
